Patent US20230293649A1 (BIOVENTURES, published 2023)

Key:
E-cadherin, P12830 = target: T1, E-cadherin, P12830
T1 chain: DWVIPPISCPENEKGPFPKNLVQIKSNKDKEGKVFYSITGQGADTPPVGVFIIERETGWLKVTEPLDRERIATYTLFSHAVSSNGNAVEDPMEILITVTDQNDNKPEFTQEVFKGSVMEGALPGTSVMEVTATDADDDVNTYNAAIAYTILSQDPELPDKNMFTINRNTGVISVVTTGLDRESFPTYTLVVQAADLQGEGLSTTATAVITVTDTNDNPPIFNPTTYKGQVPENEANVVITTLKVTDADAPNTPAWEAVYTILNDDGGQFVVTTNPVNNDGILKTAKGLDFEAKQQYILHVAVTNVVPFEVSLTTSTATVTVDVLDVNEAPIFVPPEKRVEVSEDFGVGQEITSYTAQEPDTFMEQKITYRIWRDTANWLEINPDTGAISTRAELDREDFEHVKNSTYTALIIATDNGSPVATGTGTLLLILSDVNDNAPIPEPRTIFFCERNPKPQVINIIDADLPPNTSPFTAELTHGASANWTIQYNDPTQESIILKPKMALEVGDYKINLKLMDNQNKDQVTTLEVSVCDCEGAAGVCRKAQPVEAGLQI

N-cadherin, P19022 = target: T2, N-cadherin, P19022
T2 chain: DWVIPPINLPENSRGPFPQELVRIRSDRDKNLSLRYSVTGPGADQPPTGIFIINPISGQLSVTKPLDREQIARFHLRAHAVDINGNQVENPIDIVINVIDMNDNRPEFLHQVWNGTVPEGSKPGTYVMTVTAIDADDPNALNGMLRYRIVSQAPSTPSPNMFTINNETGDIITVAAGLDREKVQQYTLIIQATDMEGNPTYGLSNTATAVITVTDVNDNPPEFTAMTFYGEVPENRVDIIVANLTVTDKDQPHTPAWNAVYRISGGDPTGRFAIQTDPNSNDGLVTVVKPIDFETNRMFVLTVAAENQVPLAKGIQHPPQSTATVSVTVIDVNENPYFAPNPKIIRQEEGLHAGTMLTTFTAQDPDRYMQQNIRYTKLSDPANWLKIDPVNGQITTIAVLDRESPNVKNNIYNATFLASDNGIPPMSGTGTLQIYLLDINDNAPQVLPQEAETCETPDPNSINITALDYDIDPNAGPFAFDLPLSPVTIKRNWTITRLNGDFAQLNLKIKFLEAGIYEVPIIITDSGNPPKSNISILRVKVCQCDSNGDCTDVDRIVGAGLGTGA

[1] = target: T3, recombinant CST6 (R&D Systems, Minneapolis, MN), Q15828
T3 chain: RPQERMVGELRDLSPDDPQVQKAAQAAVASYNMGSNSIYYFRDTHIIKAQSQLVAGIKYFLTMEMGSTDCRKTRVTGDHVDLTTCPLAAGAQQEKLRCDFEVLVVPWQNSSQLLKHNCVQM

[2] = target: T4, cathepsin K (Cathepsin K Drug Discovery Kit, Enzo Life Sciences) (UniProt P43235 115-329, limits assumed); assay: inhibition of cathepsin K cleavage of the fluorogenic substrate Z-Phe-Arg-AMC; non-linear regression of initial rates
T4 construct: also called CTSK; CatK
T4 sequence (looked up): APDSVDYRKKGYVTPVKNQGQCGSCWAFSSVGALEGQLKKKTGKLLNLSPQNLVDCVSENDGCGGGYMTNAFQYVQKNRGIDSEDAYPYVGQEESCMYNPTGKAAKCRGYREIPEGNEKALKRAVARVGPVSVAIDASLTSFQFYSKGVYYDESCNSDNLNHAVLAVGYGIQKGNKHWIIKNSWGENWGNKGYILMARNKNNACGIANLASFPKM
Description: The ability of recombinant CST6 (R&D Systems, Minneapolis, MN) to inhibit cathepsin K protease activity was assessed using the Cathepsin K Drug Discovery Kit (Enzo Life Sciences International, Plymouth Meeting, PA). Fluorimetric assays were done in triplicate in 96-well microtitre plates using cathepsin K, the fluorogenic synthetic substrate Z-Phe-Arg-AMC in the presence of the cathepsin K assay buffer. Inhibitory activity of CST6 towards cathepsin K was measured in serum-free conditioned media from the H929 cell line stably infected with pWPI or CST6 lentivirus. Conditioned media equating to 25 μg was added to each well and inhibitory activity was evaluated by measuring the residual enzyme activity. Recombinant CST6 was added to assays at various concentrations and the resultant fluorescence was measured using a SpectraMax M2 microplate reader (Molecular Devices, Sunnyvale, CA) with excitation at 380 nm and emission at 460 nm wavelengths. The initial rates from the CatK progress curves in the presence of predetermined concentrations of recombinant CST6 were subjected to non-linear regression analysis (Morrison and Walsh, 1988) using GraFit® software (Erithacus Software Limited, Surrey, UK) to determine the inhibition constant (Ki).

Binder | cleavage of E-cadherin (in vitro assay) (E-cadherin, P12830) | cleavage of N-cadherin (in vitro assay) (N-cadherin, P19022) | cleavage of E- and N-cadherin by cathepsin K (in vitro assay) [1] | Ki [2]
cathepsin K (Cathepsin K Drug Discovery Kit, Enzo Life Sciences) (protein) APDSVDYRKKGYVTPVKNQGQCGSCWAFSSVGALEGQLKKKTGKLLNLSPQNLVDCVSENDGCGGGYMTNAFQYVQKNRGIDSEDAYPYVGQEESCMYNPTGKAAKCRGYREIPEGNEKALKRAVARVGPVSVAIDASLTSFQFYSKGVYYDESCNSDNLNHAVLAVGYGIQKGNKHWIIKNSWGENWGNKGYILMARNKNNACGIANLASFPKM | cathepsin K can cleave E- and N-cadherin using an in vitro assay | cathepsin K can cleave E- and N-cadherin using an in vitro assay | the addition of recombinant Cst6 can inhibit this cleavage | 
recombinant CST6 (R&D Systems, Minneapolis, MN) (other, UniProt Q15828 29-149, looked up, also called recombinant cystatin E/M; cystatin M/E) RPQERMVGELRDLSPDDPQVQKAAQAAVASYNMGSNSIYYFRDTHIIKAQSQLVAGIKYFLTMEMGSTDCRKTRVTGDHVDLTTCPLAAGAQQEKLRCDFEVLVVPWQNSSQLLKHNCVQM |  |  |  | 3.84 nM
